# Assay: soluble fraction after stress (log2 fold change); higher = more stays soluble; pooled small domains, quantitative proteomics
# Settings: stress: 50 degC
# Method in brief: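 Custom libraries of small protein domains were pooled and measured in a high-throughput format, with quantitative proteomics as the read-out. Each library was stressed at 50°C. The value is the log2 fold change in the amount of each protein that stays soluble after stress, used as a measure of aggregation propensity; higher values mean more of the protein stays soluble.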
row,Sequence,soluble fraction (log2)
1,HMASAKTVAQSGTYKFAKTTAIKSSASDAASTVGTYYKGNTVNYNAKVTTNGQTWLRYTSYSGAQYYVKVS,-3.18
2,HMRVTEIDYGAFMKMIEEKNIGEVKVEDYEIVFTDKDNKNIYKTGIMDDPDLTQRLYNSGAVFA,0.0247
3,HMEPQSRTAYRLIEAMIVTHELPPGSRISEASLSAKLGIGRTPIREALQRLSFEGTVKIVPRSGAFVSEI,-2.76
4,HMVVKSPLEMAFDKFREMRKKIRKPMTERAEELIWKELSKLAGEDSDLKIEILEQSIRNGWQDVYAVK,-0.265
5,HMSADEVSQQLTSEQTKSKSYQALLQAYAAYQQKSFDDAALELQNVQQDVLSDSQKTIYNTISQAVNS,0.185
6,HMVYLPSSIKNIPTKYGEMMVANFKMDELQANSKNGWVSMVISERREPSEKGATHYAYVNTY,0.432
7,HMLQQKESAALGERLLNQALATLKVEPDAISWDRWEALAKEYGAKSQLDILADIGLGKRLSFVVAQALTKV,-0.535
8,HMVAPKDIVMPSFVGKKYTDVVNTPNSSYTFEFKKDEKNSSDYAVGFIMDQKPKAGETVKSNATVTLIVSK,-0.0152
9,HMTFKDIMENYTISRIENTINSAVVFLDEINAYITIDKTQLPSNLRYDTDSKIMASQIPDDAKIKYFMIYW,-1.99
10,HMELSPAELGERLKVARETANVTQDAGAKAAGIARTTLVAIEKGQRSARIDELQTLSRRYGVSVNSLLRR,-0.135
11,HMVSFAEQASDWLAHFDRLGDVGPDTTLTDLTARDAEFSAWVNEGIHHRVAFLETLAAWHRTER,-0.774
12,HMINIQYSYNDGKETLHNLSPEVIAEKIMDDPNGYHIVWKQGMVGWVNANDIDDIAKLLRQKK,-0.0619
13,HMKNEQESIAQKLYEAALKNDFVTIQEIQSGGYRLRNDDLTHMRESGVQSNTLIAIQKIFGL,0.398
14,HMRIAQYRQIENDLLEQINLGYYKKGDLIPTELELSATYHVSRVTVRKATDNLVAKGILQRVAGVGTFVSR,-1.87
15,HMTTGEIIQRERTRLGLSQEKLAEQVGVSRQAVSKWELGDAVPDTDKLVPLARTLGISVDTLLD,0.0247
16,HMNRPYVELFSGLGQEEAQQIVQKLQEDEVDYKFSGDSTILVKEDVVDQTKATLVQEGYPKS,0.0181
17,HMSLLQTRQRHEALAALGFFKGDVAAEWSAASTEALRAAQASLGIRVDGKWGPQTEDAIGKALAERQG,-0.102
18,HMQMSDTSMIRDLVLQVLAENPQSIEDFKNGKDRAVGFLVGMVMKKSQGKANPQITNQMIVEELKK,-0.104
19,HMDILPEGNYKVNYDVIDEVGNIVANKNDIVVTEKSIKPLNTILGIDLYEVIHSQTGKYFTINGDNLTN,-0.00162
20,HMDIESREAWVDASGMGVRLDRWLTQLAPEFSRNHLQSLIERGAVRVDGQPALVASRKLRIGQQVAVSLIP,-0.868
21,HMDPFVILGISKDSSQSEILEAYKTKRAYYQEHVFDEGDQGAQAARMLGQLDDAYQQAMELSHE,-0.062
22,HMDKEKLQEKLLQIFEAEPQKKFQVQDLVKVLDMEGAGQFKFVVQALADLEHNKQIKLSEDDTFSLIVKE,0.0616
23,HMLLTEETLPQLKQIVDEFPYFQIARMLYLKNLAVLNDIRFSVELKKMSIYVPDRRKLFTLIEGE,0.00426
24,HMDIKDRSGVTIDESNEAQQESIIRESWAEQKISGNVDNYIAYLKANGMLLETAKIELAALQEKDASLRE,0.0421
25,HMLDLPEISARIMEVFETKDRATISELSKLTGTNINTIKKHLSSLVENNYLIKHGKTRGAWYTKST,-0.104

row,Sequence,soluble fraction (log2)
1,HMSREEFLAGLEEALAGEVPASVIRENLNYYNSYISQEMAKGRTVDEIVDEIGEPRIVARTIIDSSEAAGE,0.0724
2,HMPDYAFEGVVIKLTHRDYDRWKAGFPDVDLPPYLTARDAWLSEQTPADRKNWFVSTATDLRNFQKREAI,-1.66
3,HMDDERDRLVQQAMEGLSPALREILLLAYFQRMPYNQIAESLRIPLGTVKSRLHAAVAAFAKRWQELNRS,-0.693
4,HMDPEARRRAILNAAIDVIVEKGAAALTHRAVAARAGVSLGSTTKYFSSIEDLRENAMDALVREMD,-0.273
5,HMARVSGIDLPKNKRGYIGLTYIYGIGRSTALHILNSAGVDPEKKVHEWNDDETTAIRNIINAEIKVEGAL,-0.645
6,HMLVGGPDTPSKVTVSFDLGSRQAVDELTERAGAAGGRIGDIDDYPFMYQRQFDDPDGYHYSPFWMKP,-0.149
7,HMTRQNTAVQQSDMAHHKASELTEGMSIVHSHFGRGTIISIETADDPRVTVDFSSEGRKTMLLRFAKFAIE,-0.118
8,HMDYNMEEWSLTADQLKSGDTILILNLGKTATLLESTRGKKNVRVRMGNIKTIVETSSIRGNPHQ,-0.878
9,HMETVRHFRLDWSQAADRLDKVLASLMNDVSRARIQEWIRLGAVSVNGEILTDVRAKVAGGDAIDVTPQTA,-0.0893
10,HMKRLPMRKIRDVLRLSADGLSTRKIGVSLTIGRTTVQAYLDRAAEVDLSWPLPPEMSDTDLERLIYPR,-3.39
11,HMITNLEPFKDFVRGFSGLHLEGVGQEKLAAALDERIRKTGSANERDYLQLIMEDVAERLKLINILT,0.0546
12,HMSETAVTYNEDFEADGSLRPNEQAVLDAFTGVLKLTVSELEKKTGLRNVVPVVASLMAKGAVEVSEELK,0.0501
13,HMGLTLREKMGHVLEMLKGREFLPFVSLFTVEEGRIGVVVTFMSILELVKEGILDLVQTESFGPIHVKAR,-0.326
14,HMLTRQRKQLLEYLSKHTDEQMTARQIADALTAESISISAVYRNLSALEEEGILKRSIRENTREVYYQYIA,-0.973
15,HMKWIEILKSKDGNYALLQDEKDTQFVVASGYNPDAAEDQKWGHGSYFIYWNNKENKAEMLMNAIDLFRYR,-2.11
16,HMRKSAVSSTLTSIEGIGATRAKALLKHFKTVAAVSEADLKELEDAPGMTRPSALRVYEYFHGK,-0.165
17,HMGHLTWTVTGIGHERRARTVAEQMSSVFGVLEARASSAGTVYLEFEREKIDEGGLEASLKRMGVTRVV,-1.71
18,HMSKQDRRIRRTRRLLKESLIQLMQEKEFMNISVREVTERADLNRGTFYLHYQDTRHLLQDIENETL,-3.25
19,HMFFDKIIVDFLADGSRIDKYISTLYPDISRTHIQRLIAEQFILVNDSVVKSNYKLSTNDVVLIHIPEA,-3.33
20,HMTTMYKSDVKGINYDVKAKSWFLRITFNGNQIPIGHFKTEEDAINVKQQLIPYIESKDYTSILAVKAKYS,-0.4
21,HMSQNVSFTVDSGQAGLRLDVFLSQADPAFSRSQIKYAIEEGDVTVNGKEPKVSQHLKDGDIVELHLE,-0.0973
22,HMYRIGELAKLADVTPDTIRYYEKQQMMDHDVRTEGGFRLYSDNDLQRLKFIRYARQLGFTLEAIRELLSI,-1.81
23,HMANAGKFDSDMGEKINFPGNRVSLTPSELEAARELAAIMGDRFFSQLIPTTSKVTVTEMLQSLK,0.3
24,HMDIEITIPPEAKELDVSKILISGNIITDEQEFLDYLKQNNVAAFKDGNYKLNKNMTTEEIVNQIK,0.498
25,HMNENDENLRQQAIDASKEVRRWGEPVTLPPMNAHDRRIIHITLEGESDLQTESTGEGNFKSVVISLK,-0.111

row,Sequence,soluble fraction (log2)
1,HMAMDYTVVHSDRRTIAIQIQRDGRVVVRAPYAATAEDIRRVVDSHRDWVEKTVRRQQEQLAAS,-0.0261
2,HMDKSPMIGTAEYEGVLYWRQTKDNGATWEWITDKNGDKMPVSGPAPAVGIDKDGYWTVNGESTGVLAKD,0.168
3,HMGESYGPVRRGETLWSIAEKVKPAGVSTQKELAAIYAANPQAFIRGDINLLKAGAELRLPSPEAL,0.172
4,HMEPREALDGLISERGETYASISRLLGRNSAYIQQFIKRGSPARLDQSDIALLALHFDVPVEMLGGKE,-0.42
5,HMNPNEVQIPDLVNKTEEEAEQILKDLKLKLVVKSEEYDENIEKGKIISQDPTYKENYKIKEHSEISVIIS,0.214
6,HMADFIKEIKTNNPRQLLKSILSSFMPRALILELEMLLWNDLKSKPIGEWSNTQIENVGKLLNNWILKPAA,0.0698
7,HMSPQPPNQEAVRTRILDQAAHLFLTIGYAETTVRRIAGAVGIKAASLYHHFGSKDEVFESILIR,0.0413
8,HMQNKYIIKQGNSGELVEVLQELLNLKQDGVFGPQTKKAVIAFQQKHKLVADGIVGPMSWRKLNFNPEELF,-2.13
9,HMEAGTVTVTHAAVYIRSGPGVSYPIAGKAAKNDTYTVLQKDGDWFQIRLPQGNTGWIAGWLVETGT,-0.635
10,HMGIRYQLADDVTDEQITAMTGKKAKIAAAIKAAGSAVSKMNVAGEMGYDKQNPINKDFMELVDAGIIVPS,0.00228
11,HMAKIEVENLEETILENLKANNGFMPYNDKTSPEEIYEVFHVSKKHFKNSLGGLMKKGLIFQNEKGTKL,-0.0312
12,HMTTTFGWENLVGEKGIAATDLHPSGWVTVKDQRVFVVSEGTFIEEGKEVEIMNVDGNRIVVREFKN,0.0515
13,HMKQQNFADLAGRFVFNADNEVVFNFGKHKNVPVATVLKNEPGYYGWMMGGDFPLFTKKILKQIKEA,-0.847
14,HMAQMDDPEMVLHIYNKMIQQRLFDTAVGYSYLKDLQEYLQSIPFIRKEDIFPIPVQHPQVEESLRKAK,-0.367
15,HMIKLSTNENTALRLVMERGLVTESELKGLFDNPVAVMESLISKMIETNTHWIHSERSENGEWVYAWQ,-0.456
16,HMDTFYKNLSKKIKTIREKLSFSQEALAKELGISRVAISQIENGDRKISAEEIAKLSRVFNVPTDILLN,0.187
17,HMEQRREEFILLAKELLEKELRKQNLEVHENLKPDVLNDVAKRLGMVSMDDLLAAVGDGKITPGTVVSKIV,0.064
18,HMVDDNFGLGEVTDQNYLTVLGRALDLIGWTDEQADSYSLKTFGVPHWDELGRSQAEKLVAHLIGLLKEQM,-0.33
19,HMAGRKMMVMANNLSVRKSANSLSEKLADLSRGDTVEYISSTNGWNKVRYKGQIGYVSSYYLKDTGEEVE,-0.0409
20,HMGISSESIKTFIREIVENEDPKAPLSDQTMVELLAERGIDISRRTVAKYRDEMNLPSSSKRKR,0.462
21,HMERDIATKHEVNRTVEAYSDIVKTLNLPSHKINLVEISFFNILKRSKPSPRENSILLGLAQKIKLHLEKK,-0.477
22,HMQQIEIEEPITVKNLSAVAGLKASEIIAKLMKLGVMSTINQVMERQHAEEIAGEYGFELVVK,0.096
23,HMKIELSDNEKIIYDLLSSQHVLLSEIKDKAGLSNKAWDKSTKSLRKLGLIAVEKKDDDIYISKL,-0.0233
24,HMTFFDDLLYQAKAAVDNDPSIKPSLHNRAIIEILYQQGVFNMKNAVEHVAELLEISKNTVYLHLRSVKG,-0.973
25,HMDVLIQEIGKRLRIQRLAMGLTQEELAKRAGISLSTLKLMEQQGKGSLQRLAKVAVVLDLDGDLRGLF,-2.42

# Source: the domain aggregation screens of Martell et al. (2025)
